Results: US20130045895A1 (published 2013)

B1: DOM7h-14 A43C (other)
VL: DIQMTQSPSSLSASVGDRVTITCRASQWIGSQLSWYQQKPGKCPKLLIMWRSSLQSGVPSRFSGSGSGTDFTLTISSLQPEDFATYYCAQGAALPRTFGQGTKVEIKR
B2: DOM7h-14 A43E (other)
VL: DIQMTQSPSSLSASVGDRVTITCRASQWIGSQLSWYQQKPGKEPKLLIMWRSSLQSGVPSRFSGSGSGTDFTLTISSLQPEDFATYYCAQGAALPRTFGQGTKVEIKR
B3: DOM7h-14 A43S (other)
VL: DIQMTQSPSSLSASVGDRVTITCRASQWIGSQLSWYQQKPGKSPKLLIMWRSSLQSGVPSRFSGSGSGTDFTLTISSLQPEDFATYYCAQGAALPRTFGQGTKVEIKR
B4: DOM7h-14 A43N (other)
VL: DIQMTQSPSSLSASVGDRVTITCRASQWIGSQLSWYQQKPGKNPKLLIMWRSSLQSGVPSRFSGSGSGTDFTLTISSLQPEDFATYYCAQGAALPRTFGQGTKVEIKR
B5: DOM7h-14 A43I (other)
VL: DIQMTQSPSSLSASVGDRVTITCRASQWIGSQLSWYQQKPGKIPKLLIMWRSSLQSGVPSRFSGSGSGTDFTLTISSLQPEDFATYYCAQGAALPRTFGQGTKVEIKR
B6: DOM7h-14 P44A (other)
VL: DIQMTQSPSSLSASVGDRVTITCRASQWIGSQLSWYQQKPGKAAKLLIMWRSSLQSGVPSRFSGSGSGTDFTLTISSLQPEDFATYYCAQGAALPRTFGQGTKVEIKR
B7: DOM7h-14 P44D (other)
VL: DIQMTQSPSSLSASVGDRVTITCRASQWIGSQLSWYQQKPGKADKLLIMWRSSLQSGVPSRFSGSGSGTDFTLTISSLQPEDFATYYCAQGAALPRTFGQGTKVEIKR
B8: DOM7h-14 A43K (other)
VL: DIQMTQSPSSLSASVGDRVTITCRASQWIGSQLSWYQQKPGKKPKLLIMWRSSLQSGVPSRFSGSGSGTDFTLTISSLQPEDFATYYCAQGAALPRTFGQGTKVEIKR
B9: DOM7h-14 P44V (other)
VL: DIQMTQSPSSLSASVGDRVTITCRASQWIGSQLSWYQQKPGKAVKLLIMWRSSLQSGVPSRFSGSGSGTDFTLTISSLQPEDFATYYCAQGAALPRTFGQGTKVEIKR
B10: DOM7h-14 A43P (other)
VL: DIQMTQSPSSLSASVGDRVTITCRASQWIGSQLSWYQQKPGKPPKLLIMWRSSLQSGVPSRFSGSGSGTDFTLTISSLQPEDFATYYCAQGAALPRTFGQGTKVEIKR
B11: DOM7h-14 P44S (other)
VL: DIQMTQSPSSLSASVGDRVTITCRASQWIGSQLSWYQQKPGKASKLLIMWRSSLQSGVPSRFSGSGSGTDFTLTISSLQPEDFATYYCAQGAALPRTFGQGTKVEIKR
B12: DOM7h-14 A43L (other)
VL: DIQMTQSPSSLSASVGDRVTITCRASQWIGSQLSWYQQKPGKLPKLLIMWRSSLQSGVPSRFSGSGSGTDFTLTISSLQPEDFATYYCAQGAALPRTFGQGTKVEIKR
B13: DOM7h-14 A43F (other)
VL: DIQMTQSPSSLSASVGDRVTITCRASQWIGSQLSWYQQKPGKFPKLLIMWRSSLQSGVPSRFSGSGSGTDFTLTISSLQPEDFATYYCAQGAALPRTFGQGTKVEIKR
B14: DOM7h-14 P44G (other)
VL: DIQMTQSPSSLSASVGDRVTITCRASQWIGSQLSWYQQKPGKAGKLLIMWRSSLQSGVPSRFSGSGSGTDFTLTISSLQPEDFATYYCAQGAALPRTFGQGTKVEIKR
B15: DOM7h-14 A43T (other)
VL: DIQMTQSPSSLSASVGDRVTITCRASQWIGSQLSWYQQKPGKTPKLLIMWRSSLQSGVPSRFSGSGSGTDFTLTISSLQPEDFATYYCAQGAALPRTFGQGTKVEIKR
B16: DOM7h-14 P44Q (other)
VL: DIQMTQSPSSLSASVGDRVTITCRASQWIGSQLSWYQQKPGKAQKLLIMWRSSLQSGVPSRFSGSGSGTDFTLTISSLQPEDFATYYCAQGAALPRTFGQGTKVEIKR
B17: DOM7h-14 P44K (other)
VL: DIQMTQSPSSLSASVGDRVTITCRASQWIGSQLSWYQQKPGKAKKLLIMWRSSLQSGVPSRFSGSGSGTDFTLTISSLQPEDFATYYCAQGAALPRTFGQGTKVEIKR
B18: DOM7h-14 A43Y (other)
VL: DIQMTQSPSSLSASVGDRVTITCRASQWIGSQLSWYQQKPGKYPKLLIMWRSSLQSGVPSRFSGSGSGTDFTLTISSLQPEDFATYYCAQGAALPRTFGQGTKVEIKR
B19: DOM7h-14 Q38C (other)
VL: DIQMTQSPSSLSASVGDRVTITCRASQWIGSQLSWYQCKPGKAPKLLIMWRSSLQSGVPSRFSGSGSGTDFTLTISSLQPEDFATYYCAQGAALPRTFGQGTKVEIKR
B20: DOM7h-14 A43G (other)
VL: DIQMTQSPSSLSASVGDRVTITCRASQWIGSQLSWYQQKPGKGPKLLIMWRSSLQSGVPSRFSGSGSGTDFTLTISSLQPEDFATYYCAQGAALPRTFGQGTKVEIKR
B21: DOM7h-14 P44H (other)
VL: DIQMTQSPSSLSASVGDRVTITCRASQWIGSQLSWYQQKPGKAHKLLIMWRSSLQSGVPSRFSGSGSGTDFTLTISSLQPEDFATYYCAQGAALPRTFGQGTKVEIKR
B22: DOM7h-14 Q38A (other)
VL: DIQMTQSPSSLSASVGDRVTITCRASQWIGSQLSWYQAKPGKAPKLLIMWRSSLQSGVPSRFSGSGSGTDFTLTISSLQPEDFATYYCAQGAALPRTFGQGTKVEIKR
B23: DOM7h-14 P44C (other)
VL: DIQMTQSPSSLSASVGDRVTITCRASQWIGSQLSWYQQKPGKACKLLIMWRSSLQSGVPSRFSGSGSGTDFTLTISSLQPEDFATYYCAQGAALPRTFGQGTKVEIKR
B24: DOM7h-14 P44R (other)
VL: DIQMTQSPSSLSASVGDRVTITCRASQWIGSQLSWYQQKPGKARKLLIMWRSSLQSGVPSRFSGSGSGTDFTLTISSLQPEDFATYYCAQGAALPRTFGQGTKVEIKR
B25: DOM7h-14 A43V (other)
VL: DIQMTQSPSSLSASVGDRVTITCRASQWIGSQLSWYQQKPGKVPKLLIMWRSSLQSGVPSRFSGSGSGTDFTLTISSLQPEDFATYYCAQGAALPRTFGQGTKVEIKR
B26: DOM7h-14 P44M (other)
VL: DIQMTQSPSSLSASVGDRVTITCRASQWIGSQLSWYQQKPGKAMKLLIMWRSSLQSGVPSRFSGSGSGTDFTLTISSLQPEDFATYYCAQGAALPRTFGQGTKVEIKR
B27: DOM7h-14 P44I (other)
VL: DIQMTQSPSSLSASVGDRVTITCRASQWIGSQLSWYQQKPGKAIKLLIMWRSSLQSGVPSRFSGSGSGTDFTLTISSLQPEDFATYYCAQGAALPRTFGQGTKVEIKR
B28: DOM7h-14 P44L (other)
VL: DIQMTQSPSSLSASVGDRVTITCRASQWIGSQLSWYQQKPGKALKLLIMWRSSLQSGVPSRFSGSGSGTDFTLTISSLQPEDFATYYCAQGAALPRTFGQGTKVEIKR
B29: DOM7h-14 P44E (other)
VL: DIQMTQSPSSLSASVGDRVTITCRASQWIGSQLSWYQQKPGKAEKLLIMWRSSLQSGVPSRFSGSGSGTDFTLTISSLQPEDFATYYCAQGAALPRTFGQGTKVEIKR
B30: DOM7h-14 P44T (other)
VL: DIQMTQSPSSLSASVGDRVTITCRASQWIGSQLSWYQQKPGKATKLLIMWRSSLQSGVPSRFSGSGSGTDFTLTISSLQPEDFATYYCAQGAALPRTFGQGTKVEIKR
B31: DOM7h-14 P44W (other)
VL: DIQMTQSPSSLSASVGDRVTITCRASQWIGSQLSWYQQKPGKAWKLLIMWRSSLQSGVPSRFSGSGSGTDFTLTISSLQPEDFATYYCAQGAALPRTFGQGTKVEIKR
B32: DOM7h-14 A43H (other)
VL: DIQMTQSPSSLSASVGDRVTITCRASQWIGSQLSWYQQKPGKHPKLLIMWRSSLQSGVPSRFSGSGSGTDFTLTISSLQPEDFATYYCAQGAALPRTFGQGTKVEIKR
B33: DOM7h-14 A43R (other)
VL: DIQMTQSPSSLSASVGDRVTITCRASQWIGSQLSWYQQKPGKRPKLLIMWRSSLQSGVPSRFSGSGSGTDFTLTISSLQPEDFATYYCAQGAALPRTFGQGTKVEIKR
B34: DOM7h-14 Q38D (other)
VL: DIQMTQSPSSLSASVGDRVTITCRASQWIGSQLSWYQDKPGKAPKLLIMWRSSLQSGVPSRFSGSGSGTDFTLTISSLQPEDFATYYCAQGAALPRTFGQGTKVEIKR
B35: DOM7h-14 A43M (other)
VL: DIQMTQSPSSLSASVGDRVTITCRASQWIGSQLSWYQQKPGKMPKLLIMWRSSLQSGVPSRFSGSGSGTDFTLTISSLQPEDFATYYCAQGAALPRTFGQGTKVEIKR
B36: DOM7h-14 P44N (other)
VL: DIQMTQSPSSLSASVGDRVTITCRASQWIGSQLSWYQQKPGKANKLLIMWRSSLQSGVPSRFSGSGSGTDFTLTISSLQPEDFATYYCAQGAALPRTFGQGTKVEIKR

What follows are binders tested against T1, Human Serum Albumin (human, UniProt P02768 25-609) (assay: BIAcore, supernatant over immobilised HSA (6036 RU);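 also: expressed culture supernatants of mutant clones diluted 1:1 in HBS-EP buffer and screened for binding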).
T1 construct: also called HSA; antigen
T1 sequence (P02768 25-609 limits assumed): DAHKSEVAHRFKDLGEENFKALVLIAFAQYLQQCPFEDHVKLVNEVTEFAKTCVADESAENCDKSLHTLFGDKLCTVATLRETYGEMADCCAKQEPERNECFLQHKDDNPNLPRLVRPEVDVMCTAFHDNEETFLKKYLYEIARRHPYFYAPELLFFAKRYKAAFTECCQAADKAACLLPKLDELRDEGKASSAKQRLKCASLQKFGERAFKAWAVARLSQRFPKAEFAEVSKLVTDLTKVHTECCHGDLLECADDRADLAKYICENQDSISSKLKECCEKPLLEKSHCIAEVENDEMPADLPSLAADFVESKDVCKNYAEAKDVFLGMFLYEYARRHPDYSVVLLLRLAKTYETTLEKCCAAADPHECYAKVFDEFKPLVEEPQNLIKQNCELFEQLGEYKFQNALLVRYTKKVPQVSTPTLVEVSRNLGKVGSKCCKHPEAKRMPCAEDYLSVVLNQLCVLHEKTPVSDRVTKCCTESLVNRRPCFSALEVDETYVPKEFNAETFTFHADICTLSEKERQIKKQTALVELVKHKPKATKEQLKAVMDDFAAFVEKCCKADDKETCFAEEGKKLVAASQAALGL
Method: Screening of expressed supernatants for Protein L and HSA binding: Mutant clones were picked into a 96 well plate format and expressed in 1 mL 2×TY 0.1 mg/ml carbenicillin supplemented with OnEx solutions 1, 2 and 3 according to the manufacturer's instructions (Novagen). Cultures were grown at 30° C. for 3 days at 950 rpm high humidity in an InforsHT shaker. Cells were pelleted by centrifugation (4.5 k in a bench top Sorvall centrifuge for 30 mins) and 75 μL of the supernatant added to an equal volume of HBS-EP buffer (GE Healthcare).
B1: binds.
B2: binds.
B3: binds.
B4: binds.
B5: binds.
B6: binds.
B7: binds.
B8: binds.
B9: binds.
B10: binds.
B11: binds.
B12: binds.
B13: binds.
B14: binds.
B15: binds.
B16: binds.
B17: binds.
B18: binds.
B19: binds.
B20: binds.
B21: binds.
B22: binds.
B23: binds.
B24: binds.
B25: binds.
B26: binds.
B27: binds.
B28: binds.
B29: binds.
B30: binds.
B31: binds.
B32: binds.
B33: binds.
B34: binds.
B35: binds.
B36: binds.
